Target: SARS-CoV-2 receptor-binding domain (amino acids 330-532), prototypical Wuhan/Victoria (SARS-CoV-2 (Wuhan/Victoria), UniProt P0DTC2 330-532)
Assay: X-ray crystallography

B1: A8 (VHH)
VHH: QVQLVESGGGLVQAGGSLRLSCAASGGTFSTAAMGWFRQAPGEERECVASIGWRGVRTWYADSVKGRFTISRDNPQNTVYLQMNNLKSGDTAVYYCAASVGNYGLPWAHFEYDFWGQGIQVTVSS
notes: also called 2_A8
B1: binds.
